Measured values reported in the supplement of paper PMC9112550, “Optimization of the antimicrobial peptide Bac7 by deep mutational scanning” (BMC Biology, 2022).

System: Escherichia coli TOP10
Experiment: shrunken log2 fold change of peptide-encoding DNA abundance (4.5 h post-induction vs induction); higher = less antimicrobial activity (less host growth inhibition)
Conditions: time post-induction: 4.5 h; library: site-saturation at positions 5, 18, 19, 20
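Note: peptides expressed intracellularly from a pBAD plasmid library in pooled LB shake-flask culture, induced with 0.3% L-arabinose, DNA abundance read by NGS, three biological replicates, DESeq2 with apeglm shrinkage.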

## RRIRERPPRLPRPRPRPIAKPRP
  shrunken log2 fold change: 0.0393

## RRIRNRPPRLPRPRPRPYDWPRP
  shrunken log2 fold change: 0.0127

## RRIRCRPPRLPRPRPRPCVLPRP
  shrunken log2 fold change: -0.7

## RRIRQRPPRLPRPRPRPGHCPRP
  shrunken log2 fold change: 0.217

## RRIRCRPPRLPRPRPRPMQQPRP
  shrunken log2 fold change: -0.036

## RRIRCRPPRLPRPRPRPGPWPRP
  shrunken log2 fold change: 0.422

## RRIRSRPPRLPRPRPRPNKYPRP
  shrunken log2 fold change: -0.653

## RRIRHRPPRLPRPRPRPNQIPRP
  shrunken log2 fold change: -0.327

## RRIRTRPPRLPRPRPRPTAHPRP
  shrunken log2 fold change: 0.0803

## RRIRKRPPRLPRPRPRPEREPRP
  shrunken log2 fold change: 0.671

## RRIRIRPPRLPRPRPRPYTQPRP
  shrunken log2 fold change: -1.02

## RRIRDRPPRLPRPRPRPYFDPRP
  shrunken log2 fold change: -0.0823

## RRIRDRPPRLPRPRPRPEFQPRP
  shrunken log2 fold change: 0.4

## RRIRHRPPRLPRPRPRPNANPRP
  shrunken log2 fold change: -0.801

## RRIRVRPPRLPRPRPRPLQSPRP
  shrunken log2 fold change: 0.12

## RRIRERPPRLPRPRPRPWRMPRP
  shrunken log2 fold change: -0.13

## RRIRNRPPRLPRPRPRPFRGPRP
  shrunken log2 fold change: 0.168

## RRIRGRPPRLPRPRPRPECRPRP
  shrunken log2 fold change: 1.32

## RRIRVRPPRLPRPRPRPLVCPRP
  shrunken log2 fold change: -0.253

## RRIRSRPPRLPRPRPRPINGPRP
  shrunken log2 fold change: -0.00748

## RRIRHRPPRLPRPRPRPYTIPRP
  shrunken log2 fold change: -0.0416

## RRIRYRPPRLPRPRPRPPFNPRP
  shrunken log2 fold change: -0.309

## RRIRVRPPRLPRPRPRPMDSPRP
  shrunken log2 fold change: -0.134

## RRIRCRPPRLPRPRPRPPEIPRP
  shrunken log2 fold change: 0.0794

## RRIRCRPPRLPRPRPRPSRCPRP
  shrunken log2 fold change: 0.137

## RRIRARPPRLPRPRPRPEPTPRP
  shrunken log2 fold change: 0.832

## RRIRNRPPRLPRPRPRPTPFPRP
  shrunken log2 fold change: -0.07

## RRIRNRPPRLPRPRPRPPLDPRP
  shrunken log2 fold change: 0.0724

## RRIRLRPPRLPRPRPRPIQLPRP
  shrunken log2 fold change: -0.235

## RRIRPRPPRLPRPRPRPCQSPRP
  shrunken log2 fold change: -0.123

## RRIRDRPPRLPRPRPRPSKWPRP
  shrunken log2 fold change: -0.196

## RRIRHRPPRLPRPRPRPCITPRP
  shrunken log2 fold change: -0.472

## RRIRPRPPRLPRPRPRPKFSPRP
  shrunken log2 fold change: -0.125

## RRIRKRPPRLPRPRPRPKLKPRP
  shrunken log2 fold change: 0.585

## RRIRKRPPRLPRPRPRPMDFPRP
  shrunken log2 fold change: -0.0018

## RRIRIRPPRLPRPRPRPWGFPRP
  shrunken log2 fold change: -0.185

## RRIRKRPPRLPRPRPRPSSLPRP
  shrunken log2 fold change: -0.557

## RRIRWRPPRLPRPRPRPQAYPRP
  shrunken log2 fold change: 0.0869

## RRIRPRPPRLPRPRPRPMYSPRP
  shrunken log2 fold change: -0.386

## RRIRTRPPRLPRPRPRPTPQPRP
  shrunken log2 fold change: 0.241

## RRIRDRPPRLPRPRPRPTDEPRP
  shrunken log2 fold change: 0.0606

## RRIRTRPPRLPRPRPRPLNWPRP
  shrunken log2 fold change: -0.246

## RRIRQRPPRLPRPRPRPYSKPRP
  shrunken log2 fold change: -0.119

## RRIRRRPPRLPRPRPRPGAFPRP
  shrunken log2 fold change: 0.539

## RRIRPRPPRLPRPRPRPVHEPRP
  shrunken log2 fold change: 0.497

## RRIRVRPPRLPRPRPRPEHFPRP
  shrunken log2 fold change: 0.131

## RRIRDRPPRLPRPRPRPVVFPRP
  shrunken log2 fold change: 0.457

## RRIRYRPPRLPRPRPRPTGEPRP
  shrunken log2 fold change: -0.0166

## RRIRTRPPRLPRPRPRPQPHPRP
  shrunken log2 fold change: -0.0402

## RRIRCRPPRLPRPRPRPPMAPRP
  shrunken log2 fold change: 0.263

## RRIRHRPPRLPRPRPRPICLPRP
  shrunken log2 fold change: -0.225

## RRIRHRPPRLPRPRPRPQVQPRP
  shrunken log2 fold change: 0.0789

## RRIRQRPPRLPRPRPRPPHGPRP
  shrunken log2 fold change: 1.06

## RRIRDRPPRLPRPRPRPSMFPRP
  shrunken log2 fold change: -0.144

## RRIRKRPPRLPRPRPRPTWGPRP
  shrunken log2 fold change: 0.317

## RRIRYRPPRLPRPRPRPYPHPRP
  shrunken log2 fold change: -0.112

## RRIRQRPPRLPRPRPRPTQDPRP
  shrunken log2 fold change: 0.508

## RRIRQRPPRLPRPRPRPYLAPRP
  shrunken log2 fold change: -0.21

## RRIRCRPPRLPRPRPRPFPPPRP
  shrunken log2 fold change: 0.0149

## RRIRWRPPRLPRPRPRPWCEPRP
  shrunken log2 fold change: -0.372

## RRIRRRPPRLPRPRPRPPDIPRP
  shrunken log2 fold change: -0.0254

## RRIRRRPPRLPRPRPRPCSGPRP
  shrunken log2 fold change: -0.0988

## RRIRSRPPRLPRPRPRPAIQPRP
  shrunken log2 fold change: -0.21

## RRIRMRPPRLPRPRPRPFRWPRP
  shrunken log2 fold change: -0.0454

## RRIRTRPPRLPRPRPRPCTWPRP
  shrunken log2 fold change: -0.0134

## RRIRLRPPRLPRPRPRPMMMPRP
  shrunken log2 fold change: -0.114

## RRIRPRPPRLPRPRPRPHKRPRP
  shrunken log2 fold change: 0.0853

## RRIRIRPPRLPRPRPRPPNFPRP
  shrunken log2 fold change: -0.108

## RRIRFRPPRLPRPRPRPTWPPRP
  shrunken log2 fold change: 0.422

## RRIRNRPPRLPRPRPRPVGYPRP
  shrunken log2 fold change: 0.025

## RRIRGRPPRLPRPRPRPKHTPRP
  shrunken log2 fold change: 0.743

## RRIRWRPPRLPRPRPRPDTFPRP
  shrunken log2 fold change: -0.0255

## RRIRNRPPRLPRPRPRPTVGPRP
  shrunken log2 fold change: -0.0817

## RRIRTRPPRLPRPRPRPVAIPRP
  shrunken log2 fold change: -0.168

## RRIRLRPPRLPRPRPRPDTQPRP
  shrunken log2 fold change: 0.0809

## RRIRLRPPRLPRPRPRPHWPPRP
  shrunken log2 fold change: 0.00985

## RRIRRRPPRLPRPRPRPGASPRP
  shrunken log2 fold change: 0.665

## RRIRGRPPRLPRPRPRPDRVPRP
  shrunken log2 fold change: 0.311

## RRIRPRPPRLPRPRPRPIIEPRP
  shrunken log2 fold change: -0.138

## RRIRERPPRLPRPRPRPFRDPRP
  shrunken log2 fold change: 0.0112

## RRIRCRPPRLPRPRPRPFEPPRP
  shrunken log2 fold change: -0.0564

## RRIRDRPPRLPRPRPRPVSPPRP
  shrunken log2 fold change: -0.134

## RRIRFRPPRLPRPRPRPIASPRP
  shrunken log2 fold change: -0.015

## RRIRLRPPRLPRPRPRPHNFPRP
  shrunken log2 fold change: -0.115

## RRIRWRPPRLPRPRPRPHDNPRP
  shrunken log2 fold change: -0.114

## RRIRPRPPRLPRPRPRPHNFPRP
  shrunken log2 fold change: 0.0735

## RRIRCRPPRLPRPRPRPAMDPRP
  shrunken log2 fold change: -0.207

## RRIRARPPRLPRPRPRPATMPRP
  shrunken log2 fold change: 0.413

## RRIRFRPPRLPRPRPRPNHDPRP
  shrunken log2 fold change: -0.332

## RRIRVRPPRLPRPRPRPMGLPRP
  shrunken log2 fold change: -0.00681

## RRIRARPPRLPRPRPRPTDLPRP
  shrunken log2 fold change: 0.274

## RRIRFRPPRLPRPRPRPPKLPRP
  shrunken log2 fold change: 0.0996

## RRIRTRPPRLPRPRPRPEFMPRP
  shrunken log2 fold change: 0.0647

## RRIRDRPPRLPRPRPRPNHQPRP
  shrunken log2 fold change: -0.303

## RRIRQRPPRLPRPRPRPAIVPRP
  shrunken log2 fold change: -0.0943

## RRIRARPPRLPRPRPRPIIAPRP
  shrunken log2 fold change: 0.00311

## RRIRFRPPRLPRPRPRPQPFPRP
  shrunken log2 fold change: -0.0783

## RRIRWRPPRLPRPRPRPKCLPRP
  shrunken log2 fold change: -0.197

## RRIRGRPPRLPRPRPRPYCVPRP
  shrunken log2 fold change: -0.237

## RRIRIRPPRLPRPRPRPAAWPRP
  shrunken log2 fold change: 0.112

## RRIRIRPPRLPRPRPRPGMVPRP
  shrunken log2 fold change: 0.0533

## RRIRWRPPRLPRPRPRPGEVPRP
  shrunken log2 fold change: -0.0252

## RRIRFRPPRLPRPRPRPPWDPRP
  shrunken log2 fold change: 0.195

## RRIRHRPPRLPRPRPRPVAPPRP
  shrunken log2 fold change: 0.222

## RRIRARPPRLPRPRPRPEINPRP
  shrunken log2 fold change: 0.96

## RRIRDRPPRLPRPRPRPSEAPRP
  shrunken log2 fold change: 0.0437

## RRIRERPPRLPRPRPRPSMLPRP
  shrunken log2 fold change: -0.938

## RRIRFRPPRLPRPRPRPYDWPRP
  shrunken log2 fold change: -0.147

## RRIRERPPRLPRPRPRPCSTPRP
  shrunken log2 fold change: -0.702

## RRIRPRPPRLPRPRPRPQMEPRP
  shrunken log2 fold change: 0.0168

## RRIRCRPPRLPRPRPRPCSKPRP
  shrunken log2 fold change: -0.0735

## RRIRSRPPRLPRPRPRPRSFPRP
  shrunken log2 fold change: 0.124

## RRIRLRPPRLPRPRPRPQYEPRP
  shrunken log2 fold change: -0.166

## RRIRYRPPRLPRPRPRPCSHPRP
  shrunken log2 fold change: -0.566

## RRIRSRPPRLPRPRPRPRLDPRP
  shrunken log2 fold change: 0.25

## RRIRNRPPRLPRPRPRPYCAPRP
  shrunken log2 fold change: -1.05

## RRIRKRPPRLPRPRPRPFSRPRP
  shrunken log2 fold change: 0.238

## RRIRKRPPRLPRPRPRPWMPPRP
  shrunken log2 fold change: 0.0548

## RRIRWRPPRLPRPRPRPFIMPRP
  shrunken log2 fold change: -0.0374

## RRIRMRPPRLPRPRPRPYPFPRP
  shrunken log2 fold change: -0.0613

## RRIRRRPPRLPRPRPRPPFDPRP
  shrunken log2 fold change: 0.735

## RRIRFRPPRLPRPRPRPLDIPRP
  shrunken log2 fold change: -0.267

## RRIRKRPPRLPRPRPRPCGTPRP
  shrunken log2 fold change: -0.0177

## RRIRERPPRLPRPRPRPVIEPRP
  shrunken log2 fold change: -0.201

## RRIRERPPRLPRPRPRPPATPRP
  shrunken log2 fold change: 0.35
